Patent publication US20040072758A1

T1: mouse neurotensin type 3 receptor (solubilized) (mouse), Q6PHU5
T1 chain: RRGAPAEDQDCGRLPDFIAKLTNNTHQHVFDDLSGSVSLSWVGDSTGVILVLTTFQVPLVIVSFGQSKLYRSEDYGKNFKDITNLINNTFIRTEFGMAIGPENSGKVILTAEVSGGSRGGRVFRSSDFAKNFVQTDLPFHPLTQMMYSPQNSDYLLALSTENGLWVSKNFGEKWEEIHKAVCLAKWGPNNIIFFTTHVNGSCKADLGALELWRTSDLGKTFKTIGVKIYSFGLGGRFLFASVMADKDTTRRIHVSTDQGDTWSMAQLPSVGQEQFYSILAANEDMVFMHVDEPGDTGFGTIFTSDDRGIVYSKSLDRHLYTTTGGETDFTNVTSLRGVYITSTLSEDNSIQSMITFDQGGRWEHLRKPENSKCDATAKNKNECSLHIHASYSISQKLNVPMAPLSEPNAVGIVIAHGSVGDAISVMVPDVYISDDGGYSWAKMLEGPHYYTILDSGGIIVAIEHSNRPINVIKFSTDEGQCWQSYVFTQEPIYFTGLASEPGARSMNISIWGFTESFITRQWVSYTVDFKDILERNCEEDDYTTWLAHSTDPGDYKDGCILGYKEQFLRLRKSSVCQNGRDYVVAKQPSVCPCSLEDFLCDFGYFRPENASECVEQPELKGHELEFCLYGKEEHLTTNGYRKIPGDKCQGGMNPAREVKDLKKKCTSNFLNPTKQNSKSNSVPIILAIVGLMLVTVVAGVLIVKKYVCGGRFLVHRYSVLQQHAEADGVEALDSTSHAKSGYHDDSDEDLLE

T2: rat neurotensin type 1 receptor (rat), P20789
T2 chain: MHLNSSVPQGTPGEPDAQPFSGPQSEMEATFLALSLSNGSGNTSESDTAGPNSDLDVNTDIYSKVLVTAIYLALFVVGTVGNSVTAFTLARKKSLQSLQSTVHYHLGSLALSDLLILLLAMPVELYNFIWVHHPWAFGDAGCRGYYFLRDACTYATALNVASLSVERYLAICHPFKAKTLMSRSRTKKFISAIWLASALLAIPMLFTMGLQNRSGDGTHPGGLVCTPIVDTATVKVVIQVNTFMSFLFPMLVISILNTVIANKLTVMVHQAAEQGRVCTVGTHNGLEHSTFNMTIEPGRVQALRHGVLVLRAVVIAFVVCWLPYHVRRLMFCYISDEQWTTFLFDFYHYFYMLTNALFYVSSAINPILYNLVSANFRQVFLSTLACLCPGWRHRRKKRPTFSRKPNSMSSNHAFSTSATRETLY

T3: rat neurotensin type 2 receptor (rat), Q63384
T3 chain: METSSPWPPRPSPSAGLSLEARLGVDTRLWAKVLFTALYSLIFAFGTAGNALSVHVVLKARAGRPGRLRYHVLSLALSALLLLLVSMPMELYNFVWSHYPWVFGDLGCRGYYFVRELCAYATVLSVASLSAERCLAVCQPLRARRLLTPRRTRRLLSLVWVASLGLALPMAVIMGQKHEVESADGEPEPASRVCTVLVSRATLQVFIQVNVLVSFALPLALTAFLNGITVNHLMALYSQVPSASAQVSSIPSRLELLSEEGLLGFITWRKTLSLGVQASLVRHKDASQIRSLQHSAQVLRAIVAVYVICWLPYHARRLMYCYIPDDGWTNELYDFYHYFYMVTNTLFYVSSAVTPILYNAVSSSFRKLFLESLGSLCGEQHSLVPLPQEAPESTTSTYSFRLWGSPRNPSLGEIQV


Experiments:
[1] = molecular target: human neurotensin type 1 receptor (human), P30989
[2] = molecular target: T1, mouse neurotensin type 3 receptor …
[3] = molecular target: T2, rat neurotensin type 1 receptor (rat), …
[4] = molecular target: T3, rat neurotensin type 2 receptor (rat), …
[5] = molecular target: human neurotensin type 1 receptor (human), P30989; assay: competition radioligand binding, reference neurotensin1-13

Chain of human neurotensin type 1 receptor (human), P30989 (P30989 whole entry): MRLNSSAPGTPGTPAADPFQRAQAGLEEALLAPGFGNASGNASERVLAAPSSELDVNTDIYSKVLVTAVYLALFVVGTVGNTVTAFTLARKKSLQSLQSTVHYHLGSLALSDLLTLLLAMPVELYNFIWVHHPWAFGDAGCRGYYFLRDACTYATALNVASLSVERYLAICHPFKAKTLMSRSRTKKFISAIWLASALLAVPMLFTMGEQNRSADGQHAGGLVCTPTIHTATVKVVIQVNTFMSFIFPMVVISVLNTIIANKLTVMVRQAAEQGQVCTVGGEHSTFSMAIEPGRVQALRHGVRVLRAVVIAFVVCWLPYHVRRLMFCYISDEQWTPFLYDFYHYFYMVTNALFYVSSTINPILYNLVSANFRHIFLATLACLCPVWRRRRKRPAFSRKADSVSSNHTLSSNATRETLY

Binder | IC50 [1] [nM] | IC50 [2] [nM] | IC50 [3] [nM] | IC50 [4] [nM] | fold lower affinity than Neurotensin1-13 [5] [fold]
QSEEGGSNATKKPYIL (modifications not checked) [contulakin-G (synthetic glycosylated 16-amino acid peptide, Gal(beta1->3)GalNAc(alpha1->) on Thr10)] | 960 | 250 | 524 | 730 | 
QSEEGGSNATKKPYIL (modifications not checked) [non-glycosylated Thr10-contulakin-G] | 23 | 71 | 79 | 170 | 10
